Assay results from patent US20190315854A1 (BEIJING VDJBIO, published 2019).
Where a chain is given by its changes, count along the chain named. Like-named read-outs stand apart in the source and are kept apart here.

T1: sIL-6R (soluble IL-6 receptor; SBH Sciences) (human, UniProt P08887 20-365)
T1 construct: also called human IL-6R
T1 sequence: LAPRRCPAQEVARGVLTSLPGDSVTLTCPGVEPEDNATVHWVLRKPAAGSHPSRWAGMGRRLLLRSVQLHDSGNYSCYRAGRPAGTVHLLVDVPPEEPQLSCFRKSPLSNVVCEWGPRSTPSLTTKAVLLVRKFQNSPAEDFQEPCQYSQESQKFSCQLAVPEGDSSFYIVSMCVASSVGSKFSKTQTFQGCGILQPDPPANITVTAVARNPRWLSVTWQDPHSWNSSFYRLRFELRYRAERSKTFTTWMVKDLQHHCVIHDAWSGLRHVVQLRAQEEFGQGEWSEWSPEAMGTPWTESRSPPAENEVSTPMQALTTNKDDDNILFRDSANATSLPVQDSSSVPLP

T2: IL-6 receptor on DS-1 cells (ATCC CRL 11102) (UniProt P08887 20-468, limits assumed)
T2 sequence (looked up): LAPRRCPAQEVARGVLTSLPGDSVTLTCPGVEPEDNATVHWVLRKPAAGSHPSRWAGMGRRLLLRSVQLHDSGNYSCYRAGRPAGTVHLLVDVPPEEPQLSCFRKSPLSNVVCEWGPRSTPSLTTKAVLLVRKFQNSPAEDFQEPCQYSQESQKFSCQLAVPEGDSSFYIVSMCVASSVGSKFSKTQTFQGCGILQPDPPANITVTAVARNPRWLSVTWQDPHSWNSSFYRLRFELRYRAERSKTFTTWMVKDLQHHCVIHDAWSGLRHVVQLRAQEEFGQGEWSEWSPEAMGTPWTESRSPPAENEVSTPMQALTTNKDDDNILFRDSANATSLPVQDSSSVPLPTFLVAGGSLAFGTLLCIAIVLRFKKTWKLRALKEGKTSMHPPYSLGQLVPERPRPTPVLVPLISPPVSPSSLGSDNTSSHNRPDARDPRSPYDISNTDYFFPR

B1: Tocilizumab (antibody, human IgG1, kappa, V domains shown)
VH: QVQLQESGPGLVRPSQTLSLTCTVSGYSITSDHAWSWVRQPPGRGLEWIGYISYSGITTYNPSLKSRVTMLRDTSKNQFSLRLSSVTAADTAVYYCARSLARTTAMDYWGQGSLVTVSS
VL: DIQMTQSPSSLSASVGDRVTITCRASQDISSYLNWYQQKPGKAPKLLIYYTSRLHSGVPSRFSGSGSGTDFTFTISSLQPEDIATYYCQQGNTLPYTFGQGTKVEIKR
notes: also called 25; 25(control)
B2: 250# (antibody, human IgG1, kappa, V domains shown)
VH: B1 VH with I57M, T103I
VL: B1 VL
notes: also called Sample # 250
B3: 205# (antibody, human IgG1, kappa, V domains shown)
VH: B1 VH with Y51F, I57M, S99C
VL: B1 VL with Q89G, T93R
B4: 231# (antibody, human IgG1, kappa, V domains shown)
VH: B1 VH with S99T, T103M, M106I, Y108F
VL: B1 VL
notes: also called Sample # 231
B5: 206# (antibody, human IgG1, kappa, V domains shown)
VH: B1 VH with Y51F, I57M, T103I
VL: B1 VL with Q89G, T93R
notes: also called Sample # 206
B6: 237# (antibody, human IgG1, kappa, V domains shown)
VH: B1 VH with I57M, S99C
VL: B1 VL with Q89G, T93R
notes: also called Sample # 237
B7: 202# (antibody, human IgG1, kappa, V domains shown)
VH: B1 VH with S99V, T103I
VL: B1 VL with Q89G, T93R
B8: 209# (antibody, human IgG1, kappa, V domains shown)
VH: B1 VH with Y51F, I57M, T103I, M106I, Y108F
VL: B1 VL
notes: also called Sample # 209
B9: 251# (antibody, human IgG1, kappa, V domains shown)
VH: B1 VH with I57M, T58I, T103I
VL: B1 VL
notes: also called Sample # 251
B10: 204# (antibody, human IgG1, kappa, V domains shown)
VH: B1 VH with Y51F, I57M, S99C, T103I
VL: B1 VL with Q89G, T93R

Key:
[1] = biological target: T1, sIL-6R (soluble IL-6 receptor; SBH …); assay: SPR (BIAcore 3000), antibody on chip, sIL-6R analyte, pH 7.4
Experimental: (§1) All SPR measurements were performed on a BIAcore 3000 instrument (GE Biosciences, Piscataway, N.J.). BIAcore Software-BIAcore 3000 Control Software V3.2 was used for the operation and control of the BIAcore 3000 instrument. BiaEvaluation Software V4.1 was used for the analysis of SPR data from the BIAcore 3000 instrument and data was plotted using Graph Pad Prism Software Version 5. […] The indicated antibodies were used as the ligand for the construction of the reference channel of the chip. […] Each sample was injected for 3 min at a flow rate of 30 μL/min to allow for binding to chip-bound antibody. Next, binding buffer without analyte was sent over the chip at the same flow rate to allow for dissociation of bound analyte. After 500s, remaining bound analyte was removed by injecting regeneration solution (1M Formic acid). Data was analyzed by using the Kinetics Wizard and the manual fitting programs that are both included with the BiaEvaluation Software V4.1.
(§2) SPR measurements at pH 7.4 and pH 6.0 were performed in parallel and KD values calculated according to the protocol as detailed in Example 1. The pH dependence is calculated as the ratio between the KD value at pH 6.0 and the KD value at pH 7.4, which indicates the fold of affinity decrease from the pH7.4 to pH6.0. If the pH dependence of a subject antibody described herein is over 1, it means that the antibody binds to IL-6R in such a pH-dependent manner that its binding to IL-6R at pH7.4 is higher than at pH6.0. If the pH dependence of a subject antibody described herein is lower than 1, it means that the antibody binds to IL-6R in such a pH-dependent manner that its binding to IL-6R at pH6.0 is higher than at pH7.4.

[2] = biological target: T1, sIL-6R (soluble IL-6 receptor; SBH …); assay: SPR (BIAcore 3000), antibody on chip, sIL-6R analyte, 25 C
Experimental: as §1

[3] = biological target: T1, sIL-6R (soluble IL-6 receptor; SBH …); assay: SPR (BIAcore 3000), antibody on chip, sIL-6R analyte, pH 7.4; remark: listed apart in the source
Experimental: as §1, §2

[4] = biological target: T1, sIL-6R (soluble IL-6 receptor; SBH …); assay: SPR (BIAcore 3000), antibody on chip, sIL-6R analyte, pH 6.0
Experimental: as §1, §2

[5] = biological target: T1, sIL-6R (soluble IL-6 receptor; SBH …); assay: SPR; ratio of KD at pH 6.0 to KD at pH 7.4; averaged between the two batches
Experimental: as §1
(§3) SPR measurements at pH 7.4 and pH 6.0 were performed in parallel and KD values calculated according to the protocol as detailed in Example 1. The pH dependence is calculated as the ratio between the KD value at pH 6.0 and the KD value at pH 7.4, which indicates the fold of affinity decrease from the pH7.4 to pH6.0. […]

[6] = biological target: T1, sIL-6R (soluble IL-6 receptor; SBH …); assay: SPR (BIAcore 3000), antibody on chip, sIL-6R analyte, 25 C; remark: listed apart in the source
Experimental: as §1

[7] = biological target: T1, sIL-6R (soluble IL-6 receptor; SBH …); assay: as above; remark: listed apart in the source
Experimental: as §1

[8] = biological target: T2, IL-6 receptor on DS-1 cells (ATCC CRL …); assay: cell-based or functional assay
[9] = biological target: T1, sIL-6R (soluble IL-6 receptor; SBH …); assay: SPR (BIAcore 3000), antibody on chip, sIL-6R analyte, 25 C; remark: listed apart in the source
Experimental: as §1

[10] = biological target: T1, sIL-6R (soluble IL-6 receptor; SBH …); assay: as above; remark: listed apart in the source
Experimental: as §1

[11] = biological target: T1, sIL-6R (soluble IL-6 receptor; SBH …); assay: SPR (BIAcore 3000), antibody on chip, sIL-6R analyte, pH 7.4; pH 7.4
[12] = biological target: T1, sIL-6R (soluble IL-6 receptor; SBH …); assay: SPR (BIAcore 3000), antibody on chip, sIL-6R analyte, pH 6.0; remark: listed apart in the source
Experimental: as §1, §2

[13] = biological target: T1, sIL-6R (soluble IL-6 receptor; SBH …); assay: SPR (BIAcore 3000), antibody on chip, sIL-6R analyte, pH 7.4; pH 7.4; remark: listed apart in the source
Experimental: as §1, §3

[14] = biological target: T1, sIL-6R (soluble IL-6 receptor; SBH …); assay: SPR; ratio of KD at pH 6.0 to KD at pH 7.4
Experimental: as §1, §2

Binder | Kd [1] [nM] | koff [1] [s⁻¹] | koff [3] [s⁻¹] | kon [3] [M⁻¹ s⁻¹] | Kd [4] [nM] | koff [4] [s⁻¹] | kon [4] [M⁻¹ s⁻¹] | Kd [7] [nM] | Relative Affinity [7] | koff [7] [s⁻¹] | kon [7] [M⁻¹ s⁻¹] | Kd [9] [nM] | Relative Affinity [9] | koff [9] [s⁻¹] | kon [9] [M⁻¹ s⁻¹] | Kd [10] [nM] | Relative Affinity [10] | koff [10] [s⁻¹] | kon [10] [M⁻¹ s⁻¹] | pH dependence (Fold of affinity decrease) [14] [fold] | further results
B1 | 2.85 | 0.000349 | 0.000341 | 108000 | 2 | 0.000564 | 283000 | 3.16 | 1 fold vs 25 (Tocilizumab) | 0.000341 | 108000 | 2.8 | 1 fold vs 25 (Tocilizumab) | 0.00035 | 125000 | 2.85 | 1 fold vs 25 (Tocilizumab) | 0.000349 | 122000 | – | Kd [2]: 1.34 nM; Relative Affinity [2]: 1 fold vs 25 (Tocilizumab); koff [2]: 0.000252 s⁻¹; kon [2]: 188000 M⁻¹ s⁻¹; pH dependence (Fold of affinity decrease) [5]: 0.48 fold; Kd [6]: 1.71 nM; Relative Affinity [6]: 1 fold vs 25 (Tocilizumab); koff [6]: 0.000353 s⁻¹; kon [6]: 207000 M⁻¹ s⁻¹; IC50 (µg/ml), inhibition of DS-1 cell proliferation, MTS assay, IL6 2 ng/mL [8]: 0.33 µg/mL; Kd [11]: 3.16 nM; Kd [12]: 1.79 nM; koff [12]: 0.000566 s⁻¹; kon [12]: 316000 M⁻¹ s⁻¹; kon [13]: 122000 M⁻¹ s⁻¹
B2 | – | – | – | – | – | – | – | – | – | – | – | 0.354 | 7.9 fold vs 25 (Tocilizumab) | 9.27e-05 | 262000 | – | – | – | – | – | –
B3 | 0.0122 | 2.14e-06 | – | – | 0.056 | 2.15e-05 | 384000 | – | – | – | – | – | – | – | – | 0.0122 | 234 fold vs 25 (Tocilizumab) | 2.14e-06 | 175000 | 4.59 | kon [1]: 175000 M⁻¹ s⁻¹
B4 | – | – | 1.48e-07 | 132000 | – | – | – | 0.00112 | 2820 fold vs 25 (Tocilizumab) | 1.48e-07 | 132000 | – | – | – | – | – | – | – | – | 95.5 | Kd [3]: 0.00112 nM; Kd [12]: 0.107 nM; koff [12]: 3.1e-05 s⁻¹; kon [12]: 291000 M⁻¹ s⁻¹
B5 | 0.00075 | 1.41e-07 | – | – | 0.0213 | 8.78e-06 | 412000 | – | – | – | – | 0.000587 | 4770 fold vs 25 (Tocilizumab) | 1.35e-07 | 230000 | 0.00075 | 3800 fold vs 25 (Tocilizumab) | 1.41e-07 | 189000 | 28.4 | kon [1]: 189000 M⁻¹ s⁻¹; IC50 (µg/ml), inhibition of DS-1 cell proliferation, MTS assay, IL6 2 ng/mL [8]: 0.0339 µg/mL
B6 | – | – | 1.01e-05 | 166000 | – | – | – | 0.0605 | 52.2 fold vs 25 (Tocilizumab) | 1.01e-05 | 166000 | – | – | – | – | – | – | – | – | 2.63 | Kd [3]: 0.0605 nM; Kd [12]: 0.159 nM; koff [12]: 4.62e-05 s⁻¹; kon [12]: 292000 M⁻¹ s⁻¹
B7 | 0.0288 | 2.46e-06 | – | – | 0.0214 | 6.1e-06 | 284000 | – | – | – | – | 0.0236 | 119 fold vs 25 (Tocilizumab) | 3.17e-06 | 134000 | 0.0288 | 99 fold vs 25 (Tocilizumab) | 2.46e-06 | 85300 | 0.74 | kon [1]: 85300 M⁻¹ s⁻¹; IC50 (µg/ml), inhibition of DS-1 cell proliferation, MTS assay, IL6 2 ng/mL [8]: 0.0686 µg/mL
B8 | – | – | 1.37e-07 | 204000 | – | – | – | 0.000669 | 4720 fold vs 25 (Tocilizumab) | 1.37e-07 | 204000 | – | – | – | – | – | – | – | – | 65.5 | Kd [3]: 0.000669 nM; Kd [12]: 0.0438 nM; koff [12]: 2.99e-05 s⁻¹; kon [12]: 683000 M⁻¹ s⁻¹
B9 | – | – | – | – | – | – | – | – | – | – | – | 0.805 | 3.5 fold vs 25 (Tocilizumab) | 0.00014 | 173000 | – | – | – | – | – | –
B10 | – | – | – | – | – | – | – | – | – | – | – | – | – | – | – | 0.0143 | 199 fold vs 25 (Tocilizumab) | 3.28e-06 | 229000 | – | IC50 (µg/ml), inhibition of DS-1 cell proliferation, MTS assay, IL6 2 ng/mL [8]: 0.0362 µg/mL
